Experimental data as given in the DeepSol protein solubility set.

Assay: soluble on expression in E. coli; label from the status in PepcDB or PDB records

| Sequence | soluble on expression in E. coli |
| --- | --- |
| MSLKYLGLCTDLYELTMAQSYLYEGKTGTAVFSLFVRKLPEKRNFLISAGLETLVERIKNFKFGDEEIKYLKSLGIFKDDFLDYLKDFEFSGNVYAIPEGRIVFQNEPLVQVEAPIPEAQLLETLVINTIQFETMIASKAVRSYLVAKGKKLVDFGFRRAHGLEAGILAARASYIAGFDGTSNVEAGREFGIPVVGTMAHSYVMIFDKEEDAFRAFAKLYPKNAIFLIDTYDTIEAAKKVVDLAKEGVPVVGVRIDSGDIVKLSKEVRKILDENGLKNVRIIVSGGVDEYKIKEWFDRGAPIDAFGVGTKFITSADAPYFDIAYKLVEYEGKPKYKLSPGKKTFPYKRQVYRYYENGKMKYDETAKWESKREGEPLVELVMKNGKLIKELPSLKEIREVVMSELEKLPENYKDITKHYEYEVKILDWEEGHHHHHH | not soluble |
| MAVDVPGIISPKTAEAASQLTDGIGGRAYLNSNGAILVTKIQLPSSTQVSNGTAYIYSGFSGGTESDIGFQYSDKYNVWKPYMKVGSKGQDQVQYLEGGSQFTNTKGFRPGSTVQLTIYKNLNGNTRATYWGTNNAGYNGRLISEISKTNVGSISKWKALATVATTGSRQSIKSNFSTSFTNITIDNKAITPVIDTQDFAKVTVSGNSVSLSVVKNLEHHHHHH | soluble |
| MDNRVREACQYISDHLADSNFDIASVAQHVCLSPSRLSHLFRQQLGISVLSWREDQRISQAKLLLSTTRMPIATVGRNVGFDDQLYFSRVFKKCTGASPSEFRAGCE | soluble |
| MAEDGPQKQQLDMPLVLDQDLTKQMRLRVESLKQRGEKKQDGEKLLRPAESVYRLDFIQQQKLQFDHWNVVLDKPGKVTITGTSQNWTPDLTNLMTRQLLDPAAIFWRKEDSDAMDWNEADALEFGERLSDLAKIRKVMYFLITFGEGVEPANLKASVVFNQL | soluble |
| MIDSIRVEGFRGLKELELSSLRRINVIVGRNNSGKSTLLEALSLFLGSSDPGTFGNVLHEILIWRGWYGIQTVDDLFYNGGDSFSISSTGKTLEALNSKHSLEFKLNGEPFYKIDRESIRRLASQAVLLARFSPKENFEFLTPLTFRRFGYAESLYSYAYERKVVKDSIKVLNEAYPEVEGFSPLLKEDNWVLYVETKYGVYPYYLMGEGFKSAMIISFLSSLLRDGVLLIDSAEAFHHPKSLKVMIQTLVRGSEKNNVQVFLTTHSLELLDLMLEMGRDGFVIYMKNVEGRIEVESIEFQRASELRESIGVDLRGFLEHHHHHH | soluble |
| MSLSEKVTIYDIAEKLNITAATVSRALNNNPKIKESTRELVIKTAASMNYKQNKLALALKSGRSNNIGVIVPRIDSNFFASVIRGIEEELQPHGYQVIICQTHESKQRENENLYTLIDAQVDGILMSVTDVTSENDDAFNNVLQKNVPLIFFDRSKHIDGVSSVTINDFRGGYLTTKHLINEGCRYIAHFSGDQSLEIFKNRFLGYKQALLDHGIEFKEEYVIPVKSMVDAGKEAVDKLLQLETPPDAIFSSSDFAALGAIQELKERNISIPNEFCVAGFSNEPFTKFMELSITSVDQSPLEMGKMAARVFLEQVDKTDTIKIEKKVVLAPELHIRKSSSRTNFEGHHHHHH | soluble |
| MTEAIHCIGCGAIIQTENPHELGYTPKTAFEKGMETGEVYCQRCFRLRHYNDIQDVQLTDDDFLRLLNGLGTEDALIVNVVDIFDFNGSLIPGLHRFIGDNPVLLVGNKVDILPKSLKKPKMVQWMRERAHEAGLRPVDVLLTSGKKPQEMQELLDTIEKYREGRDVYVVGVTNVGKSTLINQIIQQTVGVQDVITTSQFPGTTLDKIEIPLDDGHFLIDTPGIIHRHQMAHYLGKKDLKIIAPQKEIKPKVYQLNAEQTLFLGGLARFDYVQGAKSSFIAYVSNDLKLHRTKTATADAFYEKHVGGLLQPPRADEVAEFPELVRFEFSVKEKTDIVFAGLGWITVTEPGVVAGWAPKGVDVLRRKALILEHHHHHH | not soluble |
| GLESFSLTSHEKKFGVNIEFSDVNFSYPKQTNHRTLKSINFFIPSGTTCALVGHTGSGKSTIAKLLYRFYDAEGDIKIGGKNVNKYNRNSIRSIIGIVPQDTILFNETIKYNILYGKLDATDEEVIKATKSAQLYDFIEALPKKWDTIVGNKGMKLSGGERQRIAIARCLLKDPKIVIFDEATSSLDSKTEYLFQKAVEDLRKNRTLIIIAHRLSTISSAESIILLNKGKIVEKGTHKDLLKLNGEYAEMWNMQSGGNDI | soluble |
| MSLQSFENEIAFITGGASGAGFGQAQVFGRAGAKIVVADVRAEAVERAVAALKAEGIVAHGLVLDITDRQAYAGAADEVEQVFGAAPTLLFNTAGVNSFGPVEDTSYDDFDWIVGVNLGGVINGMVTFVPRMIASGRPGHIVTTSSLGGLMGSALAAPYSAAKAAVINLMESYRQGLDKHGIGVSVLCPANIKSNIAEASRLRPAQFGKSGYVENEESIASLHSIHQHGMDPVELAEHVKAGIVANQLYIIPYPEAKDGLRQHFDAIVDAVLPLEADPEGARARTEALNAWAADRARVFMEKNAAQKAEGHHHHHH | not soluble |
| SHVEYSRITKFFQEQPLEGYTLFSHRSAPNGFKVAIVLSELGFHYNTIFLDFNLGEHRAPEFVSVNPNARVPALIDHGMDNLSIWESGAILLHLVNKYYKETGNPLLWSDDLADQSQINAWLFFQTSGHAPMIGQALHFRYFHSQKIASAVERYTDEVRRVYGVVEMALAERREALVMELDTENAAAYSAGTTPMSQSRFFDYPVWLVGDKLTIADLAFVPWNNVVDRIGINIKIEFPEVYKWTKHMMRRPAVIKALRGE | soluble |
| MADYLLEIGLEEIPAHLVTESENQLIERIKNFFSDNLLDYKKIQTFSTPRRLAVLVHDLSNYSQSKDEELRGPSLKVAKDESGNWSRAAEGFARSQGTSPAEFDERDGYVYLNKHIEGVSAEEILKKIGIEVVEKMKFSTYMKWADFKLEYVRPIRWLVSLLDSKIVPFQILDVKADRFTRGHRFLSGGKISISEAGDYEETLNNAYVIVDAKVRKNSIRNQIRKIADTNDWNLHVDPDLLEEVNNIVEYPTAFAGVFDDKYLNLPEIVLTTSMRDNQRFFYVTNKQGKILPHFISVRNGDSNQIENVVKGNEKVLVARLEDAEFFFEEDQKHNIDFFMKKAERLVFHEKIGTMTEHMKRVEKIAALLANQLAFNDQEKKDLKRAANICKFDLTTAMVGEFAELQGTMAGIYAKIFGENQTVCQALSEQYLPTSSEGDLPKSKVGAMLALADKLDTLFSFFAAGIIPSGSNDPYGLRRAALGIVRIIGQQKWNFSVSKLLHSLKTAVDKHEDGFLIDFADTKEISRKVIEFFLDRIRQQSSDIRYDLLDASTGKVNEGIINY | not soluble |
| MSKLCKEFSLSATVKNISRFVDEEIYYTDTEERFNIPWRMCIAKCDDEFSLGLKCEKNNWDNREWSIETDWTMKLVSHNGKSLMESKKFTFNNSNIFDGGLNTSWDLLESDYVVDDSVVVEAHVKIIKITDLPCDEDEDSKTFLLSSTVRNISSIEEGDDYYTETTIRHNIPWRMQIKRDDGFFGLFLRCEKEDCEDPGKSWSIELDYELRLVSLNGQSLTFSDSDLFIYPSGEGFQKFMRWDDMEEKYMVNGSIIIEARGKITSLEESDDESSSENEEDDSSESHSENDSSSDNLEDEFSECVINVGGQNYTVKKQ | not soluble |
| MGSDKIHHHHHHEPVSSISDANYWKSPDLFKAFNIGLHGLLRSQSSYNIFVLGEPRSDIYGDQPFGGEATQGVERFSYNTINAEFTGISNFANFYTTLNQINLMIRRTNETDLLGEAEKNYYLGQAYGLRAYIYFHLLRSWGDVIITTEPTLGSELDISHLDKAASPASEVMDLIKKDIDASEKAFGGDYSYKQGKCYWSKPATLMLKGEVYLWSGRQMGGGTGDYTVAKTALQDLQQNGNLKLQEKFTDVFSFNNKENSEMIFALHSGKEDDFMMWRDYNWRNNMVPQREYMAGYCDETGTPFLEIPGYNLQGLMRYQVKKDHYLKSFREGDTRLKGTLKAVYKKHEDGTLEYIAPIQYKFQGTTLEGSNERSWYDDYPIYRYADALLLLAEAKALLGEDPSTEINAVRERAYGSEYFNAHKNEVAYPNDKGSFYNDNPFEAGDENVMEAILKERLREFFFEGKRWYDLRRFGKDYVLKYTTAQESRLLWPINEGALTNNPALKQTPGY | not soluble |
| MQLEDYTAATNIAKKDFMPGTTKIDRALTGQVAGLQVKRSSGMPGEGSYYNLRGIRTLTGDNAPLIVINGVPHMPDKTPSALIDGFTRDIFQFYHLQDIQNITILKGAEAAMYGSMGSNGVILIETDGTASN | not soluble |
